# B1: NphBM31s: engineered soluble variant of prenyltransferase NphB from Streptomyces sp. CL190, SEQ ID NO: 6 (protein)
# chain: MSEAADVERVYAAIEEAAGLLGVACARDKIWPLLSTFQDTLVEGGSVVVFSMASGRHSTELDFSISVPPSHGDPYAIVVEKGLFPATGHPVDDLLADIQKHLPVSMFAIDGEVTGGFKKTYAFFPTDNMPGVAELAAIPSMPPAVAENAELFARYGLDKVQMTSMDYKKRQVNLYFSELSAQTLEAESVLALVRELGLHVPNELGLKFCKRSFSVYPTLNWDTSKIDRLCFSVISTDPTLVPSSDEGDIEKFHNYATKAPYAYVGEKRTLVYGLTLSPKEEYYKLGAVYHITDVQRKLLKAFDSLED
# modifications: Synthetic polymer
# How the values were obtained:
# Assay type in all cases: biochemical
# [1] = cell-free cyclolavandulylation activity screening of prenyltransferases, substrate olivetolic acid; details: cell-free reaction with CLDS and DMAPP (CLPP donor), 28° C., 48 hours, QTOF LC/MS, with vs without prenyltransferase
# Source text: (§1) Genes encoding the following prenyltransferases were codon-optimized, synthesized, and cloned into the pET28a vector for protein expression and isolation/purification as described in Example 1. • NphB (Accession: 1ZB6_A) (SEQ ID NO: 8) • AbPT (Accession: KPI30840.1) (SEQ ID NO: 9) • SkPT (Accession: Q2L6E3.1) (SEQ ID NO: 10) • SvPT (Accession: WP_078899560.1) (SEQ ID NO: 11) • Sr1310PT (Accession: WP_057602682.1) (SEQ ID NO: 12) • NapT8 (Accession: ABS50461.1) (SEQ ID NO: 13) • NapT9 (Accession: ABS50490.1) (SEQ ID NO: 14) • Mcl23PT (Accession: AGH68908.1) (SEQ ID NO: 15) • CnqP3PT (Accession: WP_047018069.1) (SEQ ID NO: 16) • AtaWTPT (Accession: AMB20850.1) (SEQ ID NO: 17) • MzPT1 (Accession: WP_135330628.1) (SEQ ID NO: 18) • MzPT2 (Accession: WP_135330626.1) (SEQ ID NO: 19) B. Cell-Free Biosynthesis Reaction with CLPP and Various Aromatic Substrates
# (§2) The cyclolavandulyl diphosphate synthase, CLDS was prepared as described in Example 1 and used in the synthesis of CLPP.
# (§3) Stocks of the various aromatic compounds used as substrates for cyclolavandulylation activity screening were obtained from the following commercial sources: • Resveratrol (Fisher Scientific) 200 mM stock in DMSO • Luteolin (Fisher Scientific) 200 mM stock in DMSO • Naringenin (Fisher Scientific) 200 mM stock in DMSO • Tryptamine (Fisher Scientific) 200 mM stock in DMSO • Tryptophan (Fisher Scientific) 40 mM stock in water • Olivetolic acid (Toronto Research Chemicals) 200 mM stock in DMSO • Divarinic acid (Toronto Research Chemicals) 200 mM stock in DMSO • Phorolic acid (prepared in house) 200 mM stock in DMSO • Olivetol (Fisher Scientific) 200 mM stock in DMSO • Screening for cell-free biosynthesis was carried out as follows. 10 mM DMAPP, 5 mM MgCl2, 100 mM Tris-HCl (pH=8), and 4 mg/mL CLDS (SEQ ID NO: 4) were combined in a 6.80 mL reaction, which was incubated at 28° C. for 48 hours. This mixture was aliquoted into a 96-well plate (80 μL per well). The various prenyltransferases (18 μL, ˜1 g/L final concentration) listed above were screened across various substrates (2 μL of stock solution, variable concentration shown above), which were added to the wells and incubated at 28° C. for an additional 48 hours.
# (§4) Analysis of the reaction mixture was carried out as follows: 50 μL of the reaction mixture were added to 1 mL MeOH. The resulting solution was vortexed, centrifuged at 17,200 g for 5 minutes, and transferred to an HPLC vial for analysis. HRMS-QTOF analyses of the cell free reactions was performed on an Agilent Technologies 6545 Accurate Mass QTOF LC/MS with a reverse-phase column (Agilent Infinity Lab Poroshell 120 ECC18, 2.7 μm, 3.0×50 mm) using positive ESI with 1% MeCN—H2O (0.1% FA) for 2 min followed by a linear gradient of 1-99% MeCN—H2O (0.1% FA) for 14 min with a flow rate of 0.4 mL/min.
# (§5) Mass spectrometric (MS) analysis of chromatograms was carried out using MassHunter Qualitative Analysis 10.0. Targeted metabolomics using the exact m/z of the calculated proton adduct [H^+] in the presence and absence of prenyltransferase indicated the presence of cyclolavandulylated product.
# [2] = cell-free cyclolavandulylation activity screening of prenyltransferases, substrate tryptophan; details: cell-free reaction with CLDS and DMAPP (CLPP donor), 28° C., 48 hours, QTOF LC/MS, with vs without prenyltransferase
# Source text: as §1, §2, §3, §4, §5
# [3] = cell-free cyclolavandulylation activity screening of prenyltransferases, substrate resveratrol; details: cell-free reaction with CLDS and DMAPP (CLPP donor), 28° C., 48 hours, QTOF LC/MS, with vs without prenyltransferase
# Source text: as §1, §2, §3, §4, §5
# [4] = cell-free cyclolavandulylation activity screening of prenyltransferases, summary over all tested substrates; details: any of the tested substrates; cell-free biosynthesis reaction with CLDS from Streptomyces sp. CL190 and DMAPP
# Source text: as §1, §2, §3, §4, §5
# [5] = cell-free cyclolavandulylation activity screening of prenyltransferases, substrate phorolic acid; details: cell-free reaction with CLDS and DMAPP (CLPP donor), 28° C., 48 hours, QTOF LC/MS, with vs without prenyltransferase
# Source text: as §1
# (§6) The cyclolavandulyl diphosphate synthase, CLDS was prepared as described in Example 1 and used in the synthesis of CLPP. […]
# as §5
# [6] = cell-free cyclolavandulylation activity screening of prenyltransferases, substrate naringenin; details: cell-free reaction with CLDS and DMAPP (CLPP donor), 28° C., 48 hours, QTOF LC/MS, with vs without prenyltransferase
# Source text: as §1, §2, §3, §4, §5
# [7] = cell-free cyclolavandulylation activity screening of prenyltransferases, substrate divarinic acid; details: cell-free reaction with CLDS and DMAPP (CLPP donor), 28° C., 48 hours, QTOF LC/MS, with vs without prenyltransferase
# Source text: as §1, §6, §5
# [8] = cell-free cyclolavandulylation activity screening of prenyltransferases, substrate tryptamine; details: cell-free reaction with CLDS and DMAPP (CLPP donor), 28° C., 48 hours, QTOF LC/MS, with vs without prenyltransferase
# Source text: as §1, §2, §3, §4, §5
# [9] = cell-free cyclolavandulylation activity screening of prenyltransferases, substrate olivetol; details: cell-free reaction with CLDS and DMAPP (CLPP donor), 28° C., 48 hours, QTOF LC/MS, with vs without prenyltransferase
# Source text: as §1, §6, §5
# [10] = cell-free cyclolavandulylation activity screening of prenyltransferases, substrate luteolin; details: cell-free reaction with CLDS and DMAPP (CLPP donor), 28° C., 48 hours, QTOF LC/MS, with vs without prenyltransferase
# Source text: as §1, §2, §3, §4, §5
molecule,measurement,setting,value
B1,"presence of cyclolavandulylated product, Aromatic Compound (Substrate) Olivetolic Acid",[1],Yes
same,"presence of cyclolavandulylated product, Aromatic Compound (Substrate) Tryptophan",[2],No
same,"presence of cyclolavandulylated product, Aromatic Compound (Substrate) Resveratrol",[3],Yes
same,cyclolavandulylation activity with tested aromatic compounds (summary of Table 7),[4],produced a cyclolavandulylated aromatic compound
same,"presence of cyclolavandulylated product, Aromatic Compound (Substrate) Phorolic Acid",[5],No
same,"presence of cyclolavandulylated product, Aromatic Compound (Substrate) Naringenin",[6],No
same,"presence of cyclolavandulylated product, Aromatic Compound (Substrate) Divarinic Acid",[7],Yes
same,"presence of cyclolavandulylated product, Aromatic Compound (Substrate) Tryptamine",[8],No
same,"presence of cyclolavandulylated product, Aromatic Compound (Substrate) Olivetol",[9],No
same,"presence of cyclolavandulylated product, Aromatic Compound (Substrate) Luteolin",[10],No
